Test results: patent US20100278818A1

Assays:
[1] = molecular target: Tn antigen (GalNAc alpha-O-Ser/Thr of a polypeptide chain) at the surface of human tumor cells; experiment: flow cytometry, biotinylated IVIG control and SA-PE on EpCam+CD45- ovarian cancer cells from patient ascitis
[2] = molecular target: Tn antigen (GalNAc alpha-O-Ser/Thr of a polypeptide chain) at the surface of human tumor cells; experiment: immunohistochemistry, biotinylated chi-83D4 and avidin-HRP on 3 primary ovarian serous adenocarcinomas
[3] = molecular target: Tn antigen (GalNAc alpha-O-Ser/Thr of a polypeptide chain) at the surface of human tumor cells; experiment: flow cytometry, biotinylated chi-83D4 preincubated with GalNac (1 M), SA-PE, EpCam+CD45- ovarian cancer cells from patient ascitis
[4] = molecular target: Tn antigen (GalNAc alpha-O-Ser/Thr of a polypeptide chain) at the plasma membrane of murine tumor cell lines; experiment: flow cytometry MFI against antibody concentration on TA3HA cells
[5] = molecular target: Tn antigen (GalNAc alpha-O-Ser/Thr of a polypeptide chain) at the surface of human tumor cells; experiment: flow cytometry MFI against antibody concentration on Jurkat cells; parameters: unit not given here
[6] = molecular target: Tn antigen (GalNAc alpha-O-Ser/Thr of a polypeptide chain) at the surface of human tumor cells; experiment: flow cytometry MFI against antibody concentration on Shin3 cells; parameters: unit not given here
[7] = molecular target: Tn antigen (GalNAc alpha-O-Ser/Thr of a polypeptide chain) at the surface of human tumor cells; experiment: flow cytometry, biotinylated chi-83D4 and SA-PE on EpCam+CD45- ovarian cancer cells from patient ascitis (one representative patient)

Row | MFI [1] | percent of tumor cells labeled [2] | MFI [3] | saturating concentration [4] | saturating concentration [5] | saturating concentration [6] | MFI [7] | Molecule
1 | 1810 | – | – | – | – | – | – | Intravenous immunoglobulin (Tegeline, IVIG) (antibody)
2 | – | 70 to 80% | 1830 | 50 mg/mL | 70 | 20 | 4490 | chimeric anti-Tn (chi-83D4) mAb (antibody, human IgG1, kappa, V domains shown) VH: QVQLQQSDAELVKPGASVKISCKASGYTFTDHAIHWVKQKPEQGLEWIGYFSPGNGDIKYNEKFKGKATLTADKSSSTAYMQLNSLTSEDSAVYFCKRSYGNYDYWGQGTTLTVSS VL: DILLTQSPAILSVSPGERVSFSCRASQNIGTSIHWYQQRTNGSPRLLIKYASESVSGIPSRFSGSGSGTDFTLSINSVESEDIADYYCQHTNSWPTTFGGGTKLEIKR
